Source: article PMC12698293

Target: LgBiT (large BiT fragment of split NanoLuc) secreted from GCN4-LgBiT receiver cells
Test: split reporter

fold signal turn-on (co-culture against cells cultured individually): > 130 fold
Substance: scFv-SmBiT fusion secreted by sender^high cells (anti-GCN4 scFv, HA tag, G4Sx4 linker, high-affinity SmBiT peptide)
